Data published in patent US20110262439A1 (Amgen, published 2011).

T1: mutated human c-MET antigen with murine membrane-distal epitopes (extracellular domains fused to a truncated … (human/murine chimera))
T1 construct: also called cMET-10
T1 chain: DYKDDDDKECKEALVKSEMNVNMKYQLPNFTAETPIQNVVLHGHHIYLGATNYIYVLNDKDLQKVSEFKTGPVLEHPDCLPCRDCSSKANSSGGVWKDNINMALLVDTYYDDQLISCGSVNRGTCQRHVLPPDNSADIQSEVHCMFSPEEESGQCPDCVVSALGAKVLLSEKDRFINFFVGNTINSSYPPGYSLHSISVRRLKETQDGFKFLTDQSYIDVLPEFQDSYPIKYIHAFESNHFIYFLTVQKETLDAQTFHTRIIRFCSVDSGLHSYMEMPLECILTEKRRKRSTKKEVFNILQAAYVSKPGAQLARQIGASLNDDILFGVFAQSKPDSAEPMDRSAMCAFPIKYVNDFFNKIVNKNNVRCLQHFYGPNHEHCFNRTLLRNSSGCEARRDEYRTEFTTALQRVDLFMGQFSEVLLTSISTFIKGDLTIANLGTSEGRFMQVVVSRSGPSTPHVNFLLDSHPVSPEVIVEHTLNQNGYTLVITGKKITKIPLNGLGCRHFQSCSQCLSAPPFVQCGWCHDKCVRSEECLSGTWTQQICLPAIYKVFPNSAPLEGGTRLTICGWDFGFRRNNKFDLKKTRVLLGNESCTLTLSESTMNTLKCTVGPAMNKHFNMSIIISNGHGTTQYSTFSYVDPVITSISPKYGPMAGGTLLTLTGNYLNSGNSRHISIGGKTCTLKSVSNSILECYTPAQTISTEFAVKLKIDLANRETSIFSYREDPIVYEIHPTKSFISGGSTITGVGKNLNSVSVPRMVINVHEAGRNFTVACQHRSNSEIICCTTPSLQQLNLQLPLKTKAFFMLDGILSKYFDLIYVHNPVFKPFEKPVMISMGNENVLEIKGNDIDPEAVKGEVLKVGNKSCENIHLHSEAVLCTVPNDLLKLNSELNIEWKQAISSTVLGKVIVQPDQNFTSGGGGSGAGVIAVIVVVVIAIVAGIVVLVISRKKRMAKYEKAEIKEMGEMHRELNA

T2: mutated murine c-MET antigen with human membrane-distal epitopes (extracellular domains fused to a truncated … (murine/human chimera))
T2 construct: also called cMET-8
T2 chain: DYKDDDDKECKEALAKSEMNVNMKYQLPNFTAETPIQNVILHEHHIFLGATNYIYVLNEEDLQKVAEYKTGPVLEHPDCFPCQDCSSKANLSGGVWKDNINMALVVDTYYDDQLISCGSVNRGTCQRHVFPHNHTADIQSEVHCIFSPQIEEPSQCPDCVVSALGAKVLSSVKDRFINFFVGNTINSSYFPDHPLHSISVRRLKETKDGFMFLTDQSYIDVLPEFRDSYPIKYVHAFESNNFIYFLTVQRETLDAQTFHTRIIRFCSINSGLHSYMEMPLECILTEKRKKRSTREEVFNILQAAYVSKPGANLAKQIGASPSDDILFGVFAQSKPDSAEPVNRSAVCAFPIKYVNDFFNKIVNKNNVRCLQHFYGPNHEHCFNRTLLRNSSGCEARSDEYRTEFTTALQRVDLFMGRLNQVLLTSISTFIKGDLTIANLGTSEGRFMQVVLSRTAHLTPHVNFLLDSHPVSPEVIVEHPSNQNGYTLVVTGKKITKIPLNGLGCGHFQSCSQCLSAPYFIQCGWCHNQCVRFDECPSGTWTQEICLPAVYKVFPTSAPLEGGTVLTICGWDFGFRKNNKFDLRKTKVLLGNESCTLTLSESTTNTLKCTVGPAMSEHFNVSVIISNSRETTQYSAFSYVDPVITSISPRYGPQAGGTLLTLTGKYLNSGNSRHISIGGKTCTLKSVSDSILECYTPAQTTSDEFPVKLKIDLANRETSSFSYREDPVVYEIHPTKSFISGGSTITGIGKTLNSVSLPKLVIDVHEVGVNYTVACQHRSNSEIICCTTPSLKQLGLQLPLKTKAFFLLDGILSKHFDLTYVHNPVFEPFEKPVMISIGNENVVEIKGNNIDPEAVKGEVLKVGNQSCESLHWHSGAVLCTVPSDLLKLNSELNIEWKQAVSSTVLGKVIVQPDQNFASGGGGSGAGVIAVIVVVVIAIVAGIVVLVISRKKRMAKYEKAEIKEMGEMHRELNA

B1: ME75H6HL (scFv)
scFv: EVQLLEQSGAELVRPGTSVKMSCKAAGYTFTKYWIGWVKQRPGHGLEWIGDIHPGGGYANYNEKFKGKATLTADTSSSTAYMQLSRLTSDDSAIYYCARSGYDYGSSYDYHGMDFWGQGTTVTVSSGGGGSGGGGSGGGGSELQMTQSPASLSASVGEPVTFTCRASENIYSYLAWYQQKQGKSPQLLIYGATNLADGMSSRFSGSGSGRQYSLKISSLHPDDVATYYCQNVLSTPYTFGGGTKLEIKTGDYKDDDDKHHHHHH
notes: murine anti-c-MET scFv; E. coli periplasmic preparation
B2: ME06F2HL (scFv)
scFv: EVQLLEQSGAELMKPGASVKISCKATGYTFSNYWIGWVKQRPGHGLEWIGDIYPGGSYTNYNEKFKGKVTLTADTSSRTAYMQLSSLTFEDSAIYYCARSGYDYASDYDYHGMDYWGQGTTVTVSSGGGGSGGGGSGGGGSELVLTQSPSSMSASLGDRITITCQATQDIVKNLNWYQQKPGKPPSFLIYYATELAEGVPSRFSGSGSGSDYSLTISNLESEDFADYYCLQFYEFPYTFGGGTKLEIKTGDYKDDDDKHHHHHH
notes: as for B1
B3: ME06C6HL (scFv)
scFv: EVQLLEQSGAELVRPGTSVKIPCKATGYTFSYYWIGWVKQRPGHGLEWIGDIYPGGGYSNYNEKFKGKATLTADTSSSTAYMQLSGLTSEDSAIYYCARSGYDYGSDYDYHGLDYWGQGTTVTVSSGGGGSGGGGSGGGGSELVLTQSPASLAVSLGQRATISCRASESVEYYGTSLMQWYQQKPGQPPKLLIYAASNVESGVPARFSGSGSGTDFSLNIHPVEEDDIAMYFCQQSRKVPYTFGGGTKLEIKTGDYKDDDDKHHHHHH
notes: as for B1
B4: ME06E10HL (scFv)
scFv: EVQLLEQSGADLVRPGTSVKLSCKAAGYTFSRYWISWIRQRPGHGLEWIGEIYPGGGYGNYNENFKDKVTLTADTSSSTAYMQLSSLTSEDSAIYYCARSGYDYGSKYDYYGLDYWGQGTTVTVSSGGGGSGGGGSGGGGSELVMTQSPSSLSASLGERVSLTCRASQEISGYLSWLQQKPDGTIKRLIYAASTLDSGVPKRFSGSRSGSDYSLTISSLESEDFADYYCLQYASSPYTFGGGTKLEIKTGDYKDDDDKHHHHHH
notes: as for B1
B5: ME06D2HL (scFv)
scFv: EVQLLEQSGADLVRPGTSVKLSCKAAGYTFSRYWISWIRQRPGHGLEWIGEIYPGGGYGNYNENFKDKVTLTADTSSSTAYMQLSSLTSEDSAIYYCARSGYDYGSKYDYYGLDYWGQGTTVTVSSGGGGSGGGGSGGGGSELVMTQSPSSMYASLGERVTITCKASQDINSYLSWFQQKPGKSPKTLIYRANRLVDGVPSRFSGSGSGQDYSLTISSLEYEDMGIYYCLQYDAFPPTFGAGTKLEIKTGDYKDDDDKHHHHHH
notes: as for B1
B6: ME05F6HL (scFv)
scFv: EVQLLEQSGAEVVRPGTSVKMSCKAAGYTFTKYWIGWVKQRPGHGLEWIGDIHPGGGFANYNEKFKGKATLTADTSSSTAYMQLSRLTSDDSAIYYCARSGYDYGSSYDYHGMDYWGQGTTVTVSSGGGGSGGGGSGGGGSELVMTQSPSSLSASLGERVSLTCRASQEISGYLSWLQQKPDGTIKRLIYAASTLDSGVPKRFSGSRSGSDYSLTISSLESEDFADYYCLQYASYPPTFGGGTKLEIKTGDYKDDDDKHHHHHH
notes: as for B1
B7: ME06D1HL (scFv)
scFv: EVQLLEQSGAEVVRPGTSVKMSCKAAGYTFTKYWIGWVKQRPGHGLEWIGDIHPGGGFANYNEKFKGKATLTADTSSSTAYMQLSRLTSDDSAIYYCARSGYDYGSSYDYHGMDYWGQGTTVTVSSGGGGSGGGGSGGGGSELVMTQSPSSLTVTAGEKVTMSCKSSQSLLNSGNQKNYLAWYQQKPGQPPKLLIYGASTRESGVPDRFTGSGSGTDFTLTISSVQAEDLADYFCQQHYSTPYTFGGGTKLEIKTGDYKDDDDKHHHHHH
notes: as for B1
B8: ME05B7HL (scFv)
scFv: EVQLLEQSGAELVRPGTSVKISCKTTGYTFGYYWISWLKQRPGHGLEWIGDIYPGGGYTNYHEKFKGKVTLTADTSSRTAYMQLSSLTFEDSAIYYCARSGYDYGSDYDYHGMDYWGQGTTVTVSSGGGGSGGGGSGGGGSELVMTQTPSSLSASLGDRVTISCRASQGISNYLNWYQQKPDGSVKLLIYYTSRLHSGVPSRFSGSGSGTDYSLTISNLDQEDIATYFCQQGNTLPWTFGGGTKLEIKTGDYKDDDDKHHHHHH
notes: as for B1
B9: ME06B7HL (scFv)
scFv: EVQLLEQSGAELVRPGTSVKISCKATGYTFTTYWLGWVKQRPGHGLEWIGEIHPGGGYTNYNEKFKGKATLTADTSSSTAYMQLSRLTSDDSAIYYCARSGYDYGSSYDYYGMDYWGQGTTVTVSSGGGGSGGGGSGGGGSELVMTQSPSSLSASLGERVSLTCRASQDIGSSLNWLQQEPDGTIKRLIYATSSLDSGVPKRFSGSRSGSDYSLTISSLESEDFVDYYCLQYASSPYTFGGGTKLEIKTGDYKDDDDKHHHHHH
notes: as for B1
B10: ME06C7HL (scFv)
scFv: EVQLLEQSGAEVVRPGTSVKMSCKAAGYTFTKYWIGWVKQRPGHGLEWIGDIHPGGGFANYNEKFKGKATLTADTSSSTAYMQLSRLTSDDSAIYYCARSGYDYGSSYDYHGMDYWGQGTTVTVSSGGGGSGGGGSGGGGSELQMTQSPTSLAVSLGQRATISCRASQTVYYDGNNYMNWYQHKPGQPPKLLIYATSNLESGIPARFSGSGSGTDFTLNIHPVEAEDAATYYCQQSYEDPYTFGGGTKLEIKTGDYKDDDDKHHHHHH
notes: as for B1
B11: ME99B1HL (scFv)
scFv: EVQLLEQSGAELVRPGTSVKISCKATGYTFSNYWISWVKYRPGHGLEWIGDIYPGGSYTNYNEKFKGKVTLTADTSSRTAYMQLSGLTFEDSAIYYCARSGYDYGSDYDYHGMDYWGQGTTVTVSSGGGGSGGGGSGGGGSELQMTQSPASLSASVGETVTITCRASENIYSNLAWYQQKQGKSPQLLVYAATNLADGVPSRFSGSRSGSDYSLTISSLESEDFVDYYCLQYASYPYTFGGGTKLEIKTGDYKDDDDKHHHHHH
notes: as for B1

Target: T1, mutated human c-MET antigen with murine …
Test: FACS, CHO transfectants, periplasmic preparation

Binder | binding result
B1 | binds
B2 | binds
B3 | binds
B4 | binds
B5 | binds
B6 | binds
B7 | binds
B8 | binds
B9 | binds
B10 | binds

Target: T2, mutated murine c-MET antigen with human …
Test: FACS, CHO transfectants, periplasmic preparation

Binder | binding result
B1 | no binding
B2 | no binding
B3 | no binding
B4 | no binding
B5 | no binding
B6 | no binding
B7 | no binding
B11 | no binding
B8 | no binding
B9 | no binding
B10 | no binding
